# Experimental data taken from the nanobody polyreactivity screen of Harvey et al. (2022).
# Assay: yeast display, Sf9 membrane polyspecificity reagent, FACS + sequencing; frameworks hold sequencing errors
# How it was run: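 Galactose-induced (36–48 hours) yeast carrying a synthetic nanobody display library were exposed to 10% biotinylated, detergent-solubilized Sf9 membrane reagent at 4 °C for 1 hour. FACS followed streptavidin microbead enrichment, using low and high (top ~1%) gates for expression (anti-HA) and reagent binding (streptavidin). Colony PCR, MiSeq 2 × 250 sequencing and CDR-length filtering followed. Labels for polyreactivity reflect the gate of origin.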
row,Sequence,polyreactivity (PSR sort gate)
1,QVQLVESGGGLVQAGGSLRLSCAASGRTFLYNAMGWYRQAPGKERELVAAISWNGGSTYYADSVKGRFTISRDNAKNTVYLQMNSLKPEDTAVYYCNAVYRPRVGRRFPTGYDYWGQGTQVTVSS,high polyreactivity
2,QVQLVESGGGLVQAGGSLRLSCAASGSTFNFYAMGWYRQAPGKEREFVAAITSSGDSTYYADSVKGRFTISRDHAKTTVYLQMNSLKPEDTAVYYCAARLRWRYSYDYWGQGTQVTVSS,high polyreactivity
3,HAQLQESGGGLVQAGGSLRRSCAASGSIFRFSGMGWYRLAPGKERELVASIGFGSITYYADRVNGRFTISRDNANNTVYLQMNSLKPEDTAVYYCAVQVQDESWLDYWGQGTQVTVSC,low polyreactivity
4,QGQHVETGGGLVQAGCTLRLSCAASGFTCGNYAMGWYRQAPGKGRELVAAIDSDGSTDYADAVKGRFTISRDNAKNTVYLQMNSLKPEDTAVYYCAARFDYGPRGCDYWGPGTQVTVSS,low polyreactivity
5,QDQLVESGGGLVQAGGSLRLSCAASGRIFPYYAMGRYRQAPGKERELVASISGSGGRTYYADSVKGRFTISRDNAKNTVSLQMNSLKPEDTAVYYCAAYWYKVPGKYGYWGQGTQVTVSS,high polyreactivity
6,QVQLVESGGGLDQAGGSLRLSCAASGSTFYYYAMGWYRQAPGKERELVASISDDGSTNYADSVKGRFTISRDNAKNTVYLQMNSLKPEDTAVYYCAAVWWHQFGSAWYQMGYWGQGTQVTVSS,low polyreactivity
7,QVQLVESGGGLVQAGGSLRLSCAASGSTFSSYVMGWYRQAPGKERELVAGITRGGRTYYADSVKGRFTISRDNAKNTVYLQMNSLKPEDTAVYYCAKDQGGVHELDYWGQGTQVTVSS,low polyreactivity
8,QVQLVESGGGLVHAGGSLRLSCAASGRTFQWNRMVWYRQAPGKERELVATIRRGGSTNYADSVKGRFTISRDNAKNTVYLQMNSLKPEDTAVYYCAADRRYPGGWGFEYNYWGQGTQVTVSS,low polyreactivity
9,QVQLVESGGGLVQAGGSLRLSCAASGLTISTNAMGWYRQAPGKERELVAAISRAGSTYYADSVKGRFTISRDNAKNTVYLQMNSLKPEDTAVYYCAAKYRYSTYHRGSFNFWGQGTQVTVSS,high polyreactivity
10,QVQLGESGGGLVQAGGSLRLSCAASGSIFRYYAMGLYRQAPGKERELVAAISGSGGITRYADSVKGRFTISRDNAKNTVYLLMNSLKPEDTAVYYCATRPGTRPAYDYWGQGTQVTVSS,high polyreactivity
11,QVQLVESGGGLVQAGGSLRLSCAASGSIFPAYAMGWYRQAPGKERELVASITGSGGSTYYADSVKGRFTISRDIAKNTVYLQMNSLKPEDTAVYYCNARYYVYSATVDRYYHFYYWGQGTQVTVSS,high polyreactivity
12,QVQLVESGGGLVQAGGSLRLSCAASGSTFSTYDMGWYRQAPGKEREFVAAISDSGGSTYYADSVKGRFTISRDNAKNTVYLQMNSLKPEDTAVYYCNATVVFVQYVDYDYWGQGTQVTVSS,low polyreactivity
13,QVQLVESGGGLVQAGGSLRLSCAASGRTFGIYAMGWYRQAPGKERELVASISWSGGRTYYADSVKGRFTISRDNAKNTVYLQMNSLKPEDTAVYYCAAYGVYYPRSWQYFDWYGYWGQGTQVTVSS,high polyreactivity
14,QVQLVESGGGLVQAGGSLRLSCAASGRTFRRYAMGWYRQAPGKERELVAAISSSTGRTYYADSVKGRFTISRDTAKNTVYLQMNSLKPEDTAVYYCNAVHRYERDYWGQGTQVTVSS,high polyreactivity
15,QVQLVESGGGLVQAGGSLRLSCAASGRIFKYNAMGWYRQAPGKERELLAAITRGGSTNYADSVKGRFTISRDNAKNTVYLQMNSLKPEDTAVYYCAALRSRYGRDMDYWGQGTQVTVSS,high polyreactivity
16,QVQLVESGGGLVQAGGSLRLSCAASGYTFPSNAMGWYRQAPGKERDWVAAISSGGRTNYADSVKGRFTISRDNAKNTVYLQMNSLKPEDTAVYYCNADGGPGYPRAYDYWGQGTQVTVSS,low polyreactivity
17,QVQLVESGGGLVQAGGSLRLSCAASGRTFWGYAMGWYRQAPGKERELVATISSTGSTNYAESVKGRFTISRDNAKNTVYFQMNSLKPEATAVYYCNAKRHVYRGWYQRYDYWGQGTQVTVSS,high polyreactivity
18,QVQLVESGGGLVQAGGSLRLSCAASGSTFFDNAMGWYRQAPGKERELVAAITWNGGRTYYADSVKGRFTISRDNAKNTVYLQMNSLKPEDTAVYYCAKVPLYGRVIYRQPDVYSWGQGTQVTVSS,high polyreactivity
19,QVQLVESGGGLVQAGGSLRLSCAASGNIFDRNAMGWYRHAPGKESELVAAISRSGGRTYYADSVKGRFTISRDNAKNTVYLQMNSLKPEDTAVYYCNRRYRNYSSAKYDYWGQGTQVTVSS,high polyreactivity
20,QVQLVESGGGLVQAGGSLRLSCDASGRIFSVYAMGWYRQEPGKEREFVSAISRGGSTNYADSVNGRFTISRDNAKYTVYLQKNSLKPEDTAVYYWGASSLPNYYYRHYYLYEYWGQGTQVTVSS,low polyreactivity
21,QVQLVESGGGLVQAGGSLRLSCAASGLIFRRYTMGWYGQGPGKERELVAAITSSGGNTYYADSVKGRFTISRDNAKNTVYLQMNSLKPEDTAVYYCNNPGTHNYYYWGQGTQVTVSS,high polyreactivity
22,QVQLQESGGGLVQAGGSLRLGCAASGNISDAGYMGWYRQAPGKEREFVAAIAAGSNTNYADSVKGRFTISRDNAKNTVYLQMNSLKPEVTAVFYCAVACYARVQYEYWGQGTQVTVNS,low polyreactivity

row,Sequence,polyreactivity (PSR sort gate)
1,QVQLVESGGGLVQAGGSLRLSCAASGSTFWGNAMGWYRQAPGKERELVAAIDWSGGRTYYADSVKGRFTISRDNAKNTVYLQMNSLKPEDTAVYYCATRAWRGYGPYDYWGQGTQVTVSS,high polyreactivity
2,QVQLVESGGGLVQAGGSLRLSCAASGRTFFLYTMGWYRQAPGKEREFVAAINYSGGRTYYADSVKGRVTISRDHAKNTVYLQMNSLKPEDTAVDYCNAVYSFLYPDHMGYWGQGTQVTVSS,high polyreactivity
3,QVQLVESGGGLVQAGGSLRLSCAASGRTLATYAMGWYRQAPGKERELVADISWRGGTTYYADSVKGRFTISRDNAKNTVYLQMNSLKPEDTAVYYCAKRFLFHSYYWGQGSQVTVSS,high polyreactivity
4,QVQLVESGGGLVQAGGSLRLSCAASGIIFGENAMGWYRQAPGKERELVAAINSVGSTYYADSVKGRFTISRDNAKNTVYLQMNSLKPEDTAVYYCAAESWFLRWYRYDYWGQGTQVTVSS,low polyreactivity
5,QVQLVESGGGLVQAGGSLRLSCAASGRTFGLNAMGWYRQAPGKERELVAVITSSGGSTYYADSVKGRFTISRDNAKNTVYLQMNSLKPEDTAVYYCAARPPYTDSSPGERTYDYWGQGTQVTVSS,low polyreactivity
6,QVQLVESGGGLVQAGGSLRLSCAASGIIFSSYVMGWYRQAPGKERELVAAISKSGARTSYADSVKGRFTISRDNAKNTVYLQMNSLKPEDTAVYYCAATYLLERPTSKHPRYDYWGQGTQVTVSS,low polyreactivity
7,QVQLVESGGGLVQAGGSLRLSCAASGNAMGWYRQAPGNERELVAAITRRGGSTYYADSVKGRFTISRDNAKNTVYLQMNSLKPEDTAVYYCAADNPSYNLWYGYWGQGTQVTVSS,low polyreactivity
8,QVQLVESRGGLVQAGGSLRLSCAASGSIFDVNAMGWYRQAPGKERELVAAISQRGTRTYYADSVKGRFTISRDNAKNTVYLQMNSLKPEDTAVYYCNRGGWREYDSWGQGTQVTVSS,high polyreactivity
9,QVQLVESGGGLVQAGGSLRLSCAASGRTFPLYAMGWYIQAPGKERELVAAITRSGGSTYYADSVKGRFTISRDNAKNTVYLQMNSLKPEDTAVYYCNARKSKDRPTGYAFNYWGQGTQVTVSS,high polyreactivity
10,QVQLLESGGGLVQAGGSLRLSCAASGSTFQRYVMGWYRQAPGKERELVATITKSGGSTYYADSVKGRFTISRDIAKNTVYLQMNSLKPEDTAVYNCAAYLQWAFRGYYHWGQGTQVTVTS,high polyreactivity
11,QVQLVESGGGLVQAGGSLRLSCAASGRIFYTNAMGCYRQAPGKERELVAAIRSGGITTYADSVKGRFTISRDNAKNTVYLQMNSLKPEDTAVYYCATRILSIYSIFGAYDYWGQGTQVTVSS,low polyreactivity
12,QVQLVESGGGLVQAGGSLRLSCAASGRTQRYYAMGWYRQAPRKERELVAAITKSGGSTYYADSVKGRITISRDNAKNTVYLQMYSLKPEDTAVYYFNKVTYSRAQYIGGDGYYWGQGTQVTVSS,high polyreactivity
13,QVQLVESGGGLVQAGGSLRLSCAASGRIFYRYGMGWYRQAPGKERELVASITRGGSTYYADSVKGRFTISRDNAKNTVYLQMNSLKPEDTAVYYCATKSSAGYDYWGQGTQVTVSS,low polyreactivity
14,QVQLVESGGVLDQARGSLRLSCAASGRIFGYNAMGWYRQAPGKERELVAAISWGGGRTYYADSVKGRFTISRDNAKNTVYLQMNSLKPEDTAVYYCNALYVGYYDSMGYWGQGTQVTVSS,high polyreactivity
15,QVQLVESGGGLVQAGGSLRLSCAASGRIFYVYSMGWYRQAPGKDRELVADISRGGSTNYADSVKGRFTISRDNAKNTVYLQMNSLKPEDTAVYYCNTDGLWSAEYDYWGQGTQVTVSS,low polyreactivity
16,QVQLVESGGGLVQAGGSLRLSCAASGIIFTYYAMGWYIQAPGKERELVAGITWSGTTTYYADSVKGRFTISRDNAKKTVYLQMNSLKPEDPAVYYCNALGYYEHDYWGQGTQVTVSS,low polyreactivity
17,QVQLVESGGGLVQARGSLRLSCAASGSTFSRNVMGWYRQATGKERELVAAISRGGSTNYADSVKGRFTISRDNAKNTVYLQMNSLKPEDTAVDYCAARSYGSTGPHGLKWVSYDYWGQGTQVTVSS,low polyreactivity
18,QVQHVESGGGLVQAGGSLRLSCAASGFTFRYNAMGWYRQAPGKKGSWVAAISRTGGSTYYADSVKGRFTISRDNAKNTVYLQMNSLKPEDTAVYYCARAPEGTGGKYGYWGQGTQVTVSS,high polyreactivity
19,QVQLVESGGGLVQAGGSLRLSCAASGFTISVYVMGWYRQAPGKERELVAAISSSGGSTYYADSVKGRFTISRDNAKNTVYLQMNSLKPEDTAVYYCNAAGYWSYAYYWGQGTQVTVSS,high polyreactivity
20,QVQLVESGGGLVQAGGSLRLSCAASGNIFDTYVMGWYRQAPGKERELVAAITSDGGTYYADSVKGRFTISRDNAKNTVYLQMNSLKPEDTAVYYCAADTYYYPIHDYWGQGTQVTVSS,low polyreactivity
21,QVQLVESGGGLVQAGGSLRLSCAASGRTFYPYVMGWYRQAPGKEREMVAAISYTGGSTYYADSVKGRFTISRDNAKNTVYLQMNSLKPEDTAVYYCNRAKYYSGGYRYHVDYWGQGTQVTVSS,high polyreactivity
